# In PMC7438494, “Bedaquiline inhibits the yeast and human mitochondrial ATP synthases” (Communications Biology, 2020):
# T1: subunit-a of the yeast mitochondrial F1Fo ATP synthase (S. cerevisiae, UniProt P00854 11-259)
# T1 construct: ATP synthase subunit a (Fo sector), S. cerevisiae mitochondrial; The His6 tag of strain USY006 is on ATP2 (beta subunit), not on this chain; also called a-subunit
# T1 sequence (looked up): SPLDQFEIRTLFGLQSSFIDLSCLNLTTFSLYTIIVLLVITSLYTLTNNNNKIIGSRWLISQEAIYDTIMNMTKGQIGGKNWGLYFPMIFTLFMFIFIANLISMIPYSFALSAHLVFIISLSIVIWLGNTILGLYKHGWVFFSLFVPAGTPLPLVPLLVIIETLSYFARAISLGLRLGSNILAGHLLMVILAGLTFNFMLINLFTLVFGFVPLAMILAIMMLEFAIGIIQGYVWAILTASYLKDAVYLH
# B1: subunit-c of the yeast mitochondrial F1Fo ATP synthase (c10-ring) (natural protein, S. cerevisiae, UniProt P61829 1-76, looked up)
# chain: MQLVLAAKYIGAGISTIGLLGAGIGIAIVFAALINGVSRNPSIKDTVFPMAILGFALSEATGLFCLMVSFLLLFGV
# notes: ATP synthase subunit c (subunit 9, Fo sector), S. cerevisiae mitochondrial; as modelled in PDB 6WTD (chains Q and R are two of the ten copies; initial model PDB 6CP7); also called c-subunit; c-ring; copies: 10
# Key:
# [1] = molecular target: T1, subunit-a of the yeast mitochondrial …; experiment: cryo-EM structure; purified yeast F1Fo reconstituted in nanodiscs (POPC and cardiolipin, 12% by weight), incubated with BDQ (30 uM on ice 30 min, or 5 uM at room temperature 10 min); reconstruction focused on Fo at 4.2 A, whole F1Fo at 3.9 A; settings: both partners purified
# [2] = molecular target: the molecule itself; experiment: as above
binder,measurement,setting,value
B1,binding result,[1],binds
same,stoichiometry N,[2],10
